Measured values as given in the supplement of paper PMC9170038.

Tested on: MS2 coat protein
Assay: apparent KD of MS2 coat protein; designed switch direction (-1 OFF switch, 1 ON switch): -1; higher = weaker reporter binding
Outline: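 Each step of the titration lasted 0.8–1.5 h at the lowest concentration and 10–20 min at the highest. The protein, SNAP-549-labelled MS2 coat protein, went from 0.7 or 1.5 nM doubling to 3 µM over RNA switches transcribed on Illumina chips by stalled E. coli RNA polymerase. Normalised cluster fluorescence was curve-fitted, and the per-design median over clusters is given as apparent KD.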

[1] = Eterna round: R95, input ligand: microRNA oligo, concentration not stated
[2] = Eterna round: R95, input ligand: FMN 200 uM
[3] = Eterna round: R95, input ligand: none
[4] = input ligand: microRNA oligo, concentration not stated

With “AAUUCACAUGAGGAUCACCCAUGUCAGGAUAUGGUGACGCGGGUUUCGGUGCGUGUUGCCAGAAGGGACAGCUA (puzzle: Exclusion 1)” the “apparent KD of MS2 coat protein” value [1] was 81.3 nM.

For “AAUUCACAUGAGGAUCACCCAUGUCAGGAUAUGGUUUCACGUGUUUCGGUGCGUGAGGCCAGAAGGGACAGCUA (puzzle: Exclusion 1)”, the “apparent KD of MS2 coat protein” value [1] was 49.7 nM.

With “AAUUUACAUGAGGAUCACCCAUGUCAGGAUAUGGUUUUAUUUUUUUUUUUUUUUUAUUCCAGAAGGGACAGUUA (puzzle: Exclusion 1)” the “apparent KD of MS2 coat protein” value [2] was 24.2 nM, the “apparent KD of MS2 coat protein” value [1] was 17 nM and the “apparent KD of MS2 coat protein” value [3] was 14.8 nM.

“AAUUUAUGAGGAUAUACAGUGUAAAACAUGAGGAUCACCCAUGUUCUUCAAUUAGUAUUUGUAGAAGGCAUAUGUA [JR_Ex5_Sub095] (Eterna round: R97, puzzle: Exclusion 5)” was tested, and the “apparent KD of MS2 coat protein” value (input ligand: FMN 200 uM) was 17.2 nM and the “apparent KD of MS2 coat protein” value (input ligand: none) was 17.1 nM.

With “ACAAACACGGCAGGAUAUCCUCGCAUAUGAUAGGUUGUUCUCCACAUGAGGAUCACCCAUGUCGAGGAGAAGGGCCAUCAUUCU [Tibema] (Eterna round: R96, puzzle: Exclusion NG 2)” the “apparent KD of MS2 coat protein” value (input ligand: FMN 200 uM) was 16.2 nM, the “apparent KD of MS2 coat protein” value [4] was 12.7 nM and the “apparent KD of MS2 coat protein” value (input ligand: none) was 18.9 nM.

In the case of “ACAAAGGAUACAGGAUAUCGCGUACAAGUGCAGCGAGAAGGGUAUUCUAUGCGCUAUCCGACAUGAGGAUCACCCAUGUGGUCC [Eternabot solution 47] (Eterna round: R96, puzzle: Exclusion NG 1)”, the “apparent KD of MS2 coat protein” value (input ligand: FMN 200 uM) is reported as 417 nM, the “apparent KD of MS2 coat protein” value [4] is reported as 851 nM and the “apparent KD of MS2 coat protein” value (input ligand: none) is reported as 366 nM.

For “ACAACAAGCUUUUUGAACGUAGAACAUGCAGCUCUAGUCACAUGAGGAUCACCCAUGUCAGCCAGUUAGAUAGGUGA [JR_SV3TOV2_Sub066] (puzzle: Sensor v3, turn-off variant 2)”, the “apparent KD of MS2 coat protein” value [2] was 93.6 nM, the “apparent KD of MS2 coat protein” value [1] was 126 nM and the “apparent KD of MS2 coat protein” value [3] was 127 nM.

“ACAACAAGCUUUUUGUUCGUAGAACAUGAUGCUCUAGUCACAUGAGGAUCACCCAUGUCAACCAGAUAGAUAGUUGA [JR_SV3TOV2_Sub063] (puzzle: Sensor v3, turn-off variant 2)” was tested, and the “apparent KD of MS2 coat protein” value [2] was 53.1 nM, the “apparent KD of MS2 coat protein” value [1] was 143 nM and the “apparent KD of MS2 coat protein” value [3] was 50.4 nM.

With “ACAAGAAUAGGAUAUACAACAUGCCAGCUUCUUUACAACGCACAUGAGGAUCACCCAUGUAGAAGGGUUCUCUG [Exclusion-2-#14] (Eterna round: R97, puzzle: Exclusion 2)” the “apparent KD of MS2 coat protein” value (input ligand: FMN 200 uM) was 360 nM and the “apparent KD of MS2 coat protein” value (input ligand: none) was 329 nM.

With “ACAAGCUAAAUCAUAUCUUACAUGAGGAUCACCCAUGUUUUUGCAAUUAUGUUUGGGCUCUUUUGUGCUCGUCUUAU [JR_STOV1_Sub050] (Eterna round: R97, puzzle: Sensor, turn-off variant 1)” the “apparent KD of MS2 coat protein” value (input ligand: FMN 200 uM) was 16.1 nM and the “apparent KD of MS2 coat protein” value (input ligand: none) was 17.6 nM.

For “ACAAGCUCUGUUGGGUGGUACAUGAGGAUCACCCAUGUUUUGCUCGUCUUGUGGGCCCGGGCCCGCGGCCCGGGCCC [-41.7, -69.7, A 12%] (Eterna round: R97, puzzle: Sensor, turn-off variant 1)”, the “apparent KD of MS2 coat protein” value (input ligand: FMN 200 uM) was 513 nM and the “apparent KD of MS2 coat protein” value (input ligand: none) was 807 nM.

For “ACAAGCUUAAAAGGUGAUAACAUGAGGAUCACCCAUGUUCGUCUUAUAAAAAUAAAAAUAAAAAAUAAAAAAUAAAA [Sensor V2: 61] (Eterna round: R96, puzzle: Sensor v2, turn-off variant)”, the “apparent KD of MS2 coat protein” value (input ligand: FMN 200 uM) was 23.1 nM, the “apparent KD of MS2 coat protein” value [4] was 114 nM and the “apparent KD of MS2 coat protein” value (input ligand: none) was 24.2 nM.

“ACAAGCUUAAUCAGUAAGAACAUGAGGAUCACCCAUGUAAAAGGGAAGACAAUUGGGUUAUUUAAAGCUCGUCUUAU [JR_STOV1_Sub015] (Eterna round: R97, puzzle: Sensor, turn-off variant 1)” was tested, and the “apparent KD of MS2 coat protein” value (input ligand: FMN 200 uM) was 62.7 nM and the “apparent KD of MS2 coat protein” value (input ligand: none) was 111 nM.

For “ACAAGCUUGUAAUGAUUGAACAUGAGGAUCACCCAUGUAAAUGGAAGAACCAAUUGGAUAAGAUAAACUCGUCUUAU [JR_STOV1_Sub004] (Eterna round: R97, puzzle: Sensor, turn-off variant 1)”, the “apparent KD of MS2 coat protein” value (input ligand: FMN 200 uM) was 107 nM and the “apparent KD of MS2 coat protein” value (input ligand: none) was 114 nM.

In the case of “ACAAGCUUUUAGAUUCUUAACAUGAGGAUCACCCAUGUGCUCGUCUUAUUGGCCGGCCGGCCGCCGGAAAAGCUUGU (Eterna round: R97, puzzle: Sensor, turn-off variant 1)”, the “apparent KD of MS2 coat protein” value (input ligand: FMN 200 uM) is reported as 24.9 nM and the “apparent KD of MS2 coat protein” value (input ligand: none) is reported as 25.3 nM.

“ACAAGCUUUUAGAUUUUCAACAUGAGGAUCACCCAUGUUCGUCUUGUGCUAGUGCGAGUGCGGUGUACUCGUAUUAG [JL TOV1 3.82 sellena mod] (Eterna round: R97, puzzle: Sensor, turn-off variant 1)” was tested, and the “apparent KD of MS2 coat protein” value (input ligand: FMN 200 uM) was 18.5 nM and the “apparent KD of MS2 coat protein” value (input ligand: none) was 18.4 nM.

“ACAAGCUUUUAGAUUUUCAACAUGAGGAUCACCCAUGUUCGUCUUGUGCUCGGGCUUGGGCGGUGUCCGGGUUUGGG [JL TOV1 3.77 sellena mod] (Eterna round: R97, puzzle: Sensor, turn-off variant 1)” was tested, and the “apparent KD of MS2 coat protein” value (input ligand: FMN 200 uM) was 33 nM and the “apparent KD of MS2 coat protein” value (input ligand: none) was 34.7 nM.

With “ACAAGCUUUUGCUCGUCUUACAUGAGGAUCACCCAUGUCGGAUGAUCGCUUGCGUCCGGCGUCUGAGCCGUGACGGU [Sensor, turn off variant MOD of sellena. cleaned up dot.] (Eterna round: R97, puzzle: Sensor, turn-off variant 1)” the “apparent KD of MS2 coat protein” value (input ligand: FMN 200 uM) was 15.3 nM and the “apparent KD of MS2 coat protein” value (input ligand: none) was 15 nM.

In the case of “ACAAGCUUUUGCUCGUCUUACAUGAGGAUCACCCAUGUCGGGAGCAUGCAUACGUCCAGCAUCUGGACCGUAGCAGA [-25.7, -49.8 kcal, 25% A] (Eterna round: R97, puzzle: Sensor, turn-off variant 1)”, the “apparent KD of MS2 coat protein” value (input ligand: FMN 200 uM) is reported as 16.3 nM and the “apparent KD of MS2 coat protein” value (input ligand: none) is reported as 18.1 nM.

“ACAAGCUUUUUCGUGGGUGACAUGAGGAUCACCCAUGUUUGCCACGUCUUGUGGGCCCGGGCCCGCGGCCCGGGCCC [-44.6, -64.9, A 13%] (Eterna round: R97, puzzle: Sensor, turn-off variant 1)” was tested, and the “apparent KD of MS2 coat protein” value (input ligand: FMN 200 uM) was 45.8 nM and the “apparent KD of MS2 coat protein” value (input ligand: none) was 47.1 nM.

“ACAAGCUUUUUGCUCGGCUACAUGAGGAUCACCCAUGUUGUGUGUUAUUGUUUUUGAUUGUUCGUGCGCAGCAGGUA [JR_SV3TOV1_Sub073] (puzzle: Sensor v3, turn-off variant 1)” was tested, and the “apparent KD of MS2 coat protein” value [2] was 71 nM, the “apparent KD of MS2 coat protein” value [1] was 29.4 nM and the “apparent KD of MS2 coat protein” value [3] was 112 nM.

With “ACAAGCUUUUUGCUCGUCGAGUAGAAACGUGAGAGCGAGACAUGAGGAUCACCCAUGUAAAGGCAGUAGGUGGAGAU [JR_SV3TOV2_Sub025] (puzzle: Sensor v3, turn-off variant 2)” the “apparent KD of MS2 coat protein” value [2] was 33.2 nM, the “apparent KD of MS2 coat protein” value [1] was 43.2 nM and the “apparent KD of MS2 coat protein” value [3] was 33.9 nM.

In the case of “ACAAGCUUUUUGCUCGUCUACAUGAGGAUCACCCAUGUAGUGAGAUAGUGGUGAAGAUAGAAUGAGCGUAGUAGGUA [JR_SV3TOV1_Sub070] (puzzle: Sensor v3, turn-off variant 1)”, the “apparent KD of MS2 coat protein” value [2] is reported as 14.5 nM, the “apparent KD of MS2 coat protein” value [1] is reported as 34.1 nM and the “apparent KD of MS2 coat protein” value [3] is reported as 10.2 nM.

With “ACAAGCUUUUUGUUCGUCUUAUAAUAUUCUAAGAGGAUAACAUGAGGAUCACCCAUGUAACAAAGACGGACUCAUGU [Sesor Array 14 - Jieux - Sensor v3, turn-off variant 2] (puzzle: Sensor v3, turn-off variant 2)” the “apparent KD of MS2 coat protein” value [2] was 13 nM, the “apparent KD of MS2 coat protein” value [1] was 139 nM and the “apparent KD of MS2 coat protein” value [3] was 11.7 nM.
